Test results as given in patent publication US20120288536.

Molecular target: pSTAT3 (tyrosine-phosphorylated STAT3) (UniProt P40763)
Assay: SPR
Conditions: PS x3 at 5' end of sense and 3' end of antisense; strands linked at one end by C-18 (18-atom hexa-ethyleneglycol) spacers; Langmuir 1:1, 4 C, 20 mM HEPES pH 7.0, 200 mM NaCl, 10 mM MgCl2

Chain of pSTAT3 (tyrosine-phosphorylated STAT3) (P40763 whole entry): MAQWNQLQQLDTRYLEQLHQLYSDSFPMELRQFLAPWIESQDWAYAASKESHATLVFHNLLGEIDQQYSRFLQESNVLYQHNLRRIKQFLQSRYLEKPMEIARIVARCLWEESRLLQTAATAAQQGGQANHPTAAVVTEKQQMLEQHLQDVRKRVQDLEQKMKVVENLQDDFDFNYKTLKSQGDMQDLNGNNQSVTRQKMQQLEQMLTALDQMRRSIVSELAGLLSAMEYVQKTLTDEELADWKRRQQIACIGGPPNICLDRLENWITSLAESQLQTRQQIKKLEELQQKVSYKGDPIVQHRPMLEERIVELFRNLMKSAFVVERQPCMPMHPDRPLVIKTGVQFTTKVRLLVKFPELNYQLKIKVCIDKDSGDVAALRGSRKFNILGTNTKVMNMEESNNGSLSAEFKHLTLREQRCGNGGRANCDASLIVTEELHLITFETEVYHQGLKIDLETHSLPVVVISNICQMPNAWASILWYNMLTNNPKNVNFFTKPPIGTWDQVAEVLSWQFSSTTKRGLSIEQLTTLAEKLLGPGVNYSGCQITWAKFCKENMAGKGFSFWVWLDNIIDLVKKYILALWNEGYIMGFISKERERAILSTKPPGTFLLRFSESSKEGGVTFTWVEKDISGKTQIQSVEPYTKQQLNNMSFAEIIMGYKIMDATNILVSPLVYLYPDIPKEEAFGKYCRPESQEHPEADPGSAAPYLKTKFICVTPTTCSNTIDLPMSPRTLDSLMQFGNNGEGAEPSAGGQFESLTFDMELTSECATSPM

## CATTTCCCGTAAATC (double strand) [DS18]
  Kd: 142 nM
